Where a SMILES comes first, the peptide text is derived from it.
B1: BtaPL3 (peptide)
peptide: ICWRRRRRRRRRF
notes: Designed synthetic polypeptide probe; spotted on a bare gold SPRi chip; also called Ile-Cys-Trp-Arg9-Phe
B2: Bta893 (peptide)
peptide: HCWRGF
notes: Synthetic polypeptide probe from the Mix-Split library; spotted on a bare gold SPRi chip; also called His-Cys-Trp-Arg-Gly-Phe
B3: BtaE1 (peptide)
peptide: ICWRRRGGGF
notes: Designed synthetic polypeptide probe; spotted on a bare gold SPRi chip; also called Ile-Cys-Trp-Arg3Gly3-Phe
B4: BtaE2 (peptide)
peptide: ICWGGRRRGGGF
notes: Designed synthetic polypeptide probe; spotted on a bare gold SPRi chip; also called Ile-Cys-Trp-Gly2Arg3Gly3-Phe
B5: BtaE3 (peptide)
peptide: ICWGRRRGGF
notes: Designed synthetic polypeptide probe; spotted on a bare gold SPRi chip; also called Ile-Cys-Trp-Gly-Arg3-Gly2-Phe
B6: Bta1335 (peptide)
peptide: CCHRGF
notes: Synthetic polypeptide probe from the Mix-Split library; spotted on a bare gold SPRi chip; also called Cys-Cys-His-Arg-Gly-Phe
B7: BtaPL5 (peptide)
peptide: ICWRRRRRRRRRRRRRF
notes: Designed synthetic polypeptide probe; spotted on a bare gold SPRi chip; also called Ile-Cys-Trp-Arg13-Phe
B8: BtaPL1 (peptide)
peptide: ICWRRRRRF
notes: Designed synthetic polypeptide probe; spotted on a bare gold SPRi chip; also called Ile-Cys-Trp-Arg5-Phe
B9: BtaP1 (peptide)
peptide: HCWRRF
notes: Designed synthetic polypeptide probe; spotted on a bare gold SPRi chip; also called His-Cys-Trp-Arg-Arg-Phe
B10: Bta3097 (peptide)
peptide: GCYRRF
notes: Synthetic polypeptide probe from the Mix-Split library; spotted on a bare gold SPRi chip; also called Gly-Cys-Tyr-Arg-Arg-Phe
B11: BtaPL2 (peptide)
peptide: ICWRRRRRRRF
notes: Designed synthetic polypeptide probe; spotted on a bare gold SPRi chip; also called Ile-Cys-Trp-Arg7-Phe
B12: BtaP2 (peptide)
peptide: ICWRRF
notes: Designed synthetic polypeptide probe; spotted on a bare gold SPRi chip; also called Ile-Cys-Trp-Arg-Arg-Phe
B13: BtaP3 (peptide)
peptide: ICWRRGI
notes: Designed synthetic polypeptide probe; spotted on a bare gold SPRi chip; also called Ile-Cys-Trp-Arg-Arg-Gly-Ile
B14: BtaPL4 (peptide)
peptide: ICWRRRRRRRRRRRF
notes: Designed synthetic polypeptide probe; spotted on a bare gold SPRi chip; also called Ile-Cys-Trp-Arg11-Phe

target: CD138 (UniProt P18827 23-251); assay: SPR imaging (SPRi); probe spotted on bare gold chip, CD138 flowed at 50-800 nM; details: not given
Sequence (P18827 23-251): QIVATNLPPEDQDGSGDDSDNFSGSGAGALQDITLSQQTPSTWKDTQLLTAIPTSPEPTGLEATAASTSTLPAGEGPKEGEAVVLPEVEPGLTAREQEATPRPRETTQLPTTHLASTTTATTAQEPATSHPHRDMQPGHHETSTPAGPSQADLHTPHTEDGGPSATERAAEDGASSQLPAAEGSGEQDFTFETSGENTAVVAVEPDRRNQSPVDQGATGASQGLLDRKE

Kd [nM] | Molecule
6.56 | B1
1.29 | B2
0.702 | B3
0.309 | B4
0.121 | B5
2.57 | B6
85.7 | B7
0.856 | B8
1.15 | B9
5.26 | B10
0.731 | B11
1.02 | B12
0.977 | B13
9.21 | B14

tested on: diffuse large B-cell lymphoma cells; assay: Analysis of probe specificity: probe-coupled magnetic bead capture from mixed cells, flow cytometry; type: cell-based; details: positive cells (diffuse large B-cell lymphoma cells) mixed with negative cells (HELA cells) 1:10; proportion of positive cells among captured cells by flow cytometry
Method: The diagnostic specificity of the small molecular probe was detected using flow cytometry and the specific steps were as follows: • 1) Preparation of gradient concentration of cell samples: positive cells (diffuse large B-cell lymphoma cells) were mixed with negative cells (HELA cells) at a ratio of 1:10 and repeatedly pipetted to mix well; • 2) Probe-bead coupling: the reaction was performed in PBS buffer, with a bead-coupling concentration of 1 mg/mL, and 1 mg of beads corresponded to 10 μg of the BtaE3 probe, with gentle shaking for 1 h at room temperature. This was followed by washing five times with PBS buffer containing 0.01% BSA, standing for 30 s each time, and finally resuspending in PBS buffer at a concentration of 15 mg/mL; • 3) Positive cell enrichment: cells were thoroughly mixed with the magnetic bead suspension, with shaking by hand for 30 min at 4° C. in an ice box, followed by washing three times with PBS (containing 0.1% BSA and 2 mM EDTA) buffer and resuspending in PBS; • 4) Specificity analysis: The captured cells were separated using a magnetic field, and the protein expression profile was quantified by flow cytometry to calculate the proportion of positive cells.

Molecule | specificity for detection [%]
CC[C@H](C)[C@H](N)C(=O)N[C@@H](CS)C(=O)N[C@@H](Cc1c[nH]c2ccccc12)C(=O)NCC(=O)N[C@@H](CCCNC(=N)N)C(=O)N[C@@H](CCCNC(=N)N)C(=O)N[C@@H](CCCNC(=N)N)C(=O)NCC(=O)NCC(=O)N[C@@H](Cc1ccccc1)C(=O)O [BtaE3, Ile-Cys-Trp-Gly-Arg3-Gly2-Phe] (H-ICWGRRRGGF-OH; N-terminus and C-terminus assumed) | > 90

Source: patent US20250270254A1, “PROBES AND KITS FOR THE EARLY DIAGNOSIS OF DIFUSE LARGE B-CELL LYMPHOMA” (BEIJING BOE TECHNOLOGY DEVELOPMENT CO., LTD., priority 2022, published 2025)
